Literature values as cited in patent US20230416704A1, “LACTONASE AND STABILIZED MUTANTS THEREOF FOR TREATING FUNGAL INFECTIONS IN PLANTS” (MIGAL GALILEE RESEARCH INSTITUTE LTD., priority 2020, published 2023).

Conditions: as shown in WO 2020/255131; cited from earlier work

B1: H172Y: M. tuberculosis phosphotriesterase-like lactonase (PPH) with H172 substituted by tyrosine (protein)
chain: MISEFPELNTARGPIDTADLGVTLMHEHVFIMTTEIAQNYPEAWGDEDKRVAGAIARLGELKARGVDTIVDLTVIGLGRYIPRIARVAAATELNIVVATGLYTYNDVPFYFHYLGPGAQLDGPEIMTDMFVRDIEHGIADTGIKAGILKCATDEPGLTPGVERVLRAVAQAYKRTGAPISTHTHAGLRRGLDQQRIFAEEGVDLSRVVIGHCGDSTDVGYLEELIAAGSYLGMDRFGVDVISPFQDRVNIVARMCERGHADKMVLSHDACCYFDALPEELVPVAMPNWHYLHIHNDVIPALKQHGVTDEQLHTMLVDNPRRIFERQGGYQ
Q: With B1 as the molecule, how does the “temperature of 50% residual activity” value read?
A: about 65 °C
